# Data reported in the supplement of paper PMC10065799, “High-throughput profiling of sequence recognition by tyrosine kinases and SH2 domains using bacterial peptide display” (eLife, 2023).
# Tested on: AncSZ
# Assay: phosphorylation enrichment, bacterial display (enrichment ratio); higher = better substrate or ligand; peptides without Tyr show the background
# 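Further: 11-residue human phosphosite peptides and single-mutation variants displayed on the E. coli surface, counted by deep sequencing, each peptide's frequency after selection divided by its frequency in the unselected input library; frequency after pTyr selection over input frequency; kinase dosed for 20-30% of maximal phosphorylation in three min.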
row,Sequence,phosphorylation enrichment
1,QWPGPYDRPGA [HNRNPH2_Y210_R206W],0.646
2,EEGRVYVYRLS [ITGAE_Y549],0.904
3,DHCNQYEQQKM [CHD7_Y75_Y72C],0.842
4,RGFDTYFGYLL [ARSB_Y165],2.15
5,LLREWYLQDPF [SIX3_Y225_YF],1.43
6,PRNLIYFGEHP [TRPV6_Y201_C197R],1.23
7,KKLEVYQSIAD [MYBPC3_Y548],0.878
8,THQKSYQPGRK [CEFIP_Y210_N208K],0.437
9,SSEFHYVGGFF [CTSC_Y347_YF],0.949
10,FASTGYVIAIQ [GRIN2B_Y762_G763V],1.32
11,QNVADYMRCLM [RPL5_Y207_Y210C],1.68
12,IGNGYYFRVFS [MYBPC3_Y1136],1.34
13,LYSINYLHFGD [KDM4C_Y201_E206D],1.99
14,KGSEGYLAAIY [NF1_Y2503_T2507I],0.78
15,KGSLPYNLILD [PKD1L2_Y406],0.695
16,RRVLVYVGRGA [QDPR_Y16_G17V],1.1
17,ENPAKYDDIKK [GAPDH_Y255_K251N],0.915
18,IFLADCRIMEG [ALOX12B_Y318_Y318C_YF],1.33
19,NVTRKYSRQIL [MAP3K2_Y463_T464S],0.425
20,LNAGAYSKVVE [PPT1_Y172_Q177E],0.447
21,KNNSIYVLANI [VNN1_Y134_V136L],1.17
22,GHEYIYVDRMQ [PDGFRB_Y581_P584R],0.891
23,TRSFKYLLLSM [NF1_Y491_YF],1.12
24,SDVWSYGVTMW [ZAP70_Y525],1.15
25,DVSVVCSEVKT [FCRL4_Y493_Y493C],1.15
26,METKGYHSLPE [NR3C2_Y6],0.696
27,TDLAFYLVCKG [ASL_Y376_R379C_YF],1.31
28,FEGHSYSACTT [MMP9_Y241_R239H],0.95
29,PESTLYRKFTT [NTRK1_Y701_I699T],1.01

# Biological target: EPHB1 (UniProt P54762)
# Assay: as above
# Chain of EPHB1 (P54762 whole entry, looked up): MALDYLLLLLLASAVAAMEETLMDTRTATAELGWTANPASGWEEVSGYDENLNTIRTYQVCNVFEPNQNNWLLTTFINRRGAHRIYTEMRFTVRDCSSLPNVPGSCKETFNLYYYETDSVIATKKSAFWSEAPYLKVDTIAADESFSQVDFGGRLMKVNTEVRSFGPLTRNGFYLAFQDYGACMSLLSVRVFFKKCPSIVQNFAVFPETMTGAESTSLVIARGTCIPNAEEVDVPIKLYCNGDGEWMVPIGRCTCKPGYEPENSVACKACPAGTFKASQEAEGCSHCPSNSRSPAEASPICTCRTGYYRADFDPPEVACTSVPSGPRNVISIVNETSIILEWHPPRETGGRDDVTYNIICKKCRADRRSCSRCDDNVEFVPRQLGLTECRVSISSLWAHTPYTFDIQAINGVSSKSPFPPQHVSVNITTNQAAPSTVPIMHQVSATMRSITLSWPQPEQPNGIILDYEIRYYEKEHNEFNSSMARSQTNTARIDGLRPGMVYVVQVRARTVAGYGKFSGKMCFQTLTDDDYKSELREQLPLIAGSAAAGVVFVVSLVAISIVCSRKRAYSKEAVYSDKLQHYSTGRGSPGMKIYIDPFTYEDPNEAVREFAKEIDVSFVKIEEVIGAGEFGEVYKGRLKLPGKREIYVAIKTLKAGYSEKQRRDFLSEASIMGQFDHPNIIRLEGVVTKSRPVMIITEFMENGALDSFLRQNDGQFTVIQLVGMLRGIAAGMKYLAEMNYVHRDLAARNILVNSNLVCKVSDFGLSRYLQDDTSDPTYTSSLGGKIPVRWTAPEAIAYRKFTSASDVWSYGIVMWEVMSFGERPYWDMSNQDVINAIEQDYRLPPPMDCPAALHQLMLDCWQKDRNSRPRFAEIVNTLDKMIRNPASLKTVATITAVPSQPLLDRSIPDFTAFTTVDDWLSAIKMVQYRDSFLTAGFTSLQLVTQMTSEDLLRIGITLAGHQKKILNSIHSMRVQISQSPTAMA
row,Sequence,phosphorylation enrichment
1,QWPGPYDRPGA [HNRNPH2_Y210_R206W],0.416
2,EEGRVYVYRLS [ITGAE_Y549],0.595
3,DHCNQYEQQKM [CHD7_Y75_Y72C],0.545
4,RGFDTYFGYLL [ARSB_Y165],5.14
5,LLREWYLQDPF [SIX3_Y225_YF],0.557
6,PRNLIYFGEHP [TRPV6_Y201_C197R],0.631
7,KKLEVYQSIAD [MYBPC3_Y548],0.557
8,THQKSYQPGRK [CEFIP_Y210_N208K],0.273
9,SSEFHYVGGFF [CTSC_Y347_YF],0.646
10,FASTGYVIAIQ [GRIN2B_Y762_G763V],0.618
11,QNVADYMRCLM [RPL5_Y207_Y210C],1.03
12,IGNGYYFRVFS [MYBPC3_Y1136],0.729
13,LYSINYLHFGD [KDM4C_Y201_E206D],12.7
14,KGSEGYLAAIY [NF1_Y2503_T2507I],0.525
15,KGSLPYNLILD [PKD1L2_Y406],0.468
16,RRVLVYVGRGA [QDPR_Y16_G17V],0.63
17,ENPAKYDDIKK [GAPDH_Y255_K251N],0.608
18,IFLADCRIMEG [ALOX12B_Y318_Y318C_YF],0.803
19,NVTRKYSRQIL [MAP3K2_Y463_T464S],0.356
20,LNAGAYSKVVE [PPT1_Y172_Q177E],0.431
21,KNNSIYVLANI [VNN1_Y134_V136L],0.793
22,GHEYIYVDRMQ [PDGFRB_Y581_P584R],0.796
23,TRSFKYLLLSM [NF1_Y491_YF],0.663
24,SDVWSYGVTMW [ZAP70_Y525],0.688
25,DVSVVCSEVKT [FCRL4_Y493_Y493C],0.617
26,METKGYHSLPE [NR3C2_Y6],0.48
27,TDLAFYLVCKG [ASL_Y376_R379C_YF],0.79
28,FEGHSYSACTT [MMP9_Y241_R239H],0.617
29,PESTLYRKFTT [NTRK1_Y701_I699T],0.433

# Biological target: EPHB2 (UniProt P29323)
# Assay: as above
# Chain of EPHB2 (P29323 whole entry, looked up): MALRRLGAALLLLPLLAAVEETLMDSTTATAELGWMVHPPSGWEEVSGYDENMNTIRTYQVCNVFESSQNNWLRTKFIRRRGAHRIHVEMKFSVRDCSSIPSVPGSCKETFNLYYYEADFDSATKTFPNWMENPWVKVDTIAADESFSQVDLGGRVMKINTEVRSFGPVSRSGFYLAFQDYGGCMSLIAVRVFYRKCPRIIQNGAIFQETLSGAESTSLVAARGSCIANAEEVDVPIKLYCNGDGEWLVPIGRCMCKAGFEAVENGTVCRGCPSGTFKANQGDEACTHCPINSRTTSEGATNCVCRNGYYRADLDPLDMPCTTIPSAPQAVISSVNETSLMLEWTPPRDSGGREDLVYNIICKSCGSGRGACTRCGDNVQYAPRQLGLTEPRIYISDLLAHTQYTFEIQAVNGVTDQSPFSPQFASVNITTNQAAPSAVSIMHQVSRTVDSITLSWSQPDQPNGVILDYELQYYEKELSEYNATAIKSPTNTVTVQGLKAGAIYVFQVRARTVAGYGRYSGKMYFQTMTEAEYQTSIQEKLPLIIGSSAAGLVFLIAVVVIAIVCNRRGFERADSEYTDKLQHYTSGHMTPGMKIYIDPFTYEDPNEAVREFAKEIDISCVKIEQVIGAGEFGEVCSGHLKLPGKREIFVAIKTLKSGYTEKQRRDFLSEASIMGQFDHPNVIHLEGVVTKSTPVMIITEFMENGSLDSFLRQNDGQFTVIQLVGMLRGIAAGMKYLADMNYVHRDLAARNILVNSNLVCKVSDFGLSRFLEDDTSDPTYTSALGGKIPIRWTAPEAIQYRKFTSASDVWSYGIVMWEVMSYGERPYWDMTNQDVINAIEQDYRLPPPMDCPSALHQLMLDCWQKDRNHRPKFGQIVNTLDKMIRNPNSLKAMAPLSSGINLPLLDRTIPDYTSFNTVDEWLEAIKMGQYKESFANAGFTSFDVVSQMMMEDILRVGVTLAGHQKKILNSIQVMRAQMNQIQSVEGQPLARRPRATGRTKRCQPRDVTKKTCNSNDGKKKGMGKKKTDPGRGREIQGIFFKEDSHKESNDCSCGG
row,Sequence,phosphorylation enrichment
1,QWPGPYDRPGA [HNRNPH2_Y210_R206W],0.513
2,EEGRVYVYRLS [ITGAE_Y549],0.504
3,DHCNQYEQQKM [CHD7_Y75_Y72C],0.714
4,RGFDTYFGYLL [ARSB_Y165],8.25
5,LLREWYLQDPF [SIX3_Y225_YF],0.765
6,PRNLIYFGEHP [TRPV6_Y201_C197R],0.925
7,KKLEVYQSIAD [MYBPC3_Y548],0.529
8,THQKSYQPGRK [CEFIP_Y210_N208K],0.432
9,SSEFHYVGGFF [CTSC_Y347_YF],0.532
10,FASTGYVIAIQ [GRIN2B_Y762_G763V],0.587
11,QNVADYMRCLM [RPL5_Y207_Y210C],0.801
12,IGNGYYFRVFS [MYBPC3_Y1136],0.667
13,LYSINYLHFGD [KDM4C_Y201_E206D],12.1
14,KGSEGYLAAIY [NF1_Y2503_T2507I],0.561
15,KGSLPYNLILD [PKD1L2_Y406],0.418
16,RRVLVYVGRGA [QDPR_Y16_G17V],0.858
17,ENPAKYDDIKK [GAPDH_Y255_K251N],0.582
18,IFLADCRIMEG [ALOX12B_Y318_Y318C_YF],0.664
19,NVTRKYSRQIL [MAP3K2_Y463_T464S],0.317
20,LNAGAYSKVVE [PPT1_Y172_Q177E],0.416
21,KNNSIYVLANI [VNN1_Y134_V136L],0.668
22,GHEYIYVDRMQ [PDGFRB_Y581_P584R],0.546
23,TRSFKYLLLSM [NF1_Y491_YF],0.51
24,SDVWSYGVTMW [ZAP70_Y525],0.695
25,DVSVVCSEVKT [FCRL4_Y493_Y493C],0.614
26,METKGYHSLPE [NR3C2_Y6],0.367
27,TDLAFYLVCKG [ASL_Y376_R379C_YF],0.593
28,FEGHSYSACTT [MMP9_Y241_R239H],0.524
29,PESTLYRKFTT [NTRK1_Y701_I699T],0.275

# Biological target: FGFR1 (UniProt P11362)
# Assay: as above
# Chain of FGFR1 (P11362 whole entry, looked up): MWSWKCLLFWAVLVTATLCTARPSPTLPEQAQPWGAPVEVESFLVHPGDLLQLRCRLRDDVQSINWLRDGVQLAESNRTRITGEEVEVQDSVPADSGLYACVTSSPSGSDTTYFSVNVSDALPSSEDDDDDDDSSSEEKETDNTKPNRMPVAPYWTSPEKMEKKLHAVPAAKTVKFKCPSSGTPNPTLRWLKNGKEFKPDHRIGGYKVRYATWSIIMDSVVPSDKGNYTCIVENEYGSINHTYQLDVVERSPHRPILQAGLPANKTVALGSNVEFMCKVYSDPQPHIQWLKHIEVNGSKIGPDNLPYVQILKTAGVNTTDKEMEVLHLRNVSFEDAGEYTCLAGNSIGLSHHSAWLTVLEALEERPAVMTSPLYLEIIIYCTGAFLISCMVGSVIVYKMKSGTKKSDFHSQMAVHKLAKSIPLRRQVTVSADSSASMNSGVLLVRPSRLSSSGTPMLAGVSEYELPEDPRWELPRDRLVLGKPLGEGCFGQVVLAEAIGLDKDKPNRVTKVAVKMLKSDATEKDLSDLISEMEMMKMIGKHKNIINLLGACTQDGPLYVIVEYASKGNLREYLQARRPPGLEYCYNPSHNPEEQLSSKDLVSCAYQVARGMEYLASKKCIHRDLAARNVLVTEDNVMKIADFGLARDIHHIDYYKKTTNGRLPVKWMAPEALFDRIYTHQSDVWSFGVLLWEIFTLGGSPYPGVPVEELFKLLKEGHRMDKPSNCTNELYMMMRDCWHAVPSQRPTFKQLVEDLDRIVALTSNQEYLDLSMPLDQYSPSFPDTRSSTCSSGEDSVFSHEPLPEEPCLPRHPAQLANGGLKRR
row,Sequence,phosphorylation enrichment
1,QWPGPYDRPGA [HNRNPH2_Y210_R206W],0.602
2,EEGRVYVYRLS [ITGAE_Y549],0.496
3,DHCNQYEQQKM [CHD7_Y75_Y72C],0.424
4,RGFDTYFGYLL [ARSB_Y165],3.58
5,LLREWYLQDPF [SIX3_Y225_YF],0.941
6,PRNLIYFGEHP [TRPV6_Y201_C197R],0.423
7,KKLEVYQSIAD [MYBPC3_Y548],0.499
8,THQKSYQPGRK [CEFIP_Y210_N208K],0.433
9,SSEFHYVGGFF [CTSC_Y347_YF],0.572
10,FASTGYVIAIQ [GRIN2B_Y762_G763V],0.484
11,QNVADYMRCLM [RPL5_Y207_Y210C],0.753
12,IGNGYYFRVFS [MYBPC3_Y1136],0.514
13,LYSINYLHFGD [KDM4C_Y201_E206D],5.82
14,KGSEGYLAAIY [NF1_Y2503_T2507I],0.572
15,KGSLPYNLILD [PKD1L2_Y406],0.552
16,RRVLVYVGRGA [QDPR_Y16_G17V],0.797
17,ENPAKYDDIKK [GAPDH_Y255_K251N],0.519
18,IFLADCRIMEG [ALOX12B_Y318_Y318C_YF],0.654
19,NVTRKYSRQIL [MAP3K2_Y463_T464S],0.363
20,LNAGAYSKVVE [PPT1_Y172_Q177E],0.436
21,KNNSIYVLANI [VNN1_Y134_V136L],0.947
22,GHEYIYVDRMQ [PDGFRB_Y581_P584R],5.2
23,TRSFKYLLLSM [NF1_Y491_YF],0.43
24,SDVWSYGVTMW [ZAP70_Y525],0.557
25,DVSVVCSEVKT [FCRL4_Y493_Y493C],0.625
26,METKGYHSLPE [NR3C2_Y6],0.434
27,TDLAFYLVCKG [ASL_Y376_R379C_YF],0.551
28,FEGHSYSACTT [MMP9_Y241_R239H],0.533
29,PESTLYRKFTT [NTRK1_Y701_I699T],0.646
